Here are results for four molecules from patent US6107076A, “Soluble mammalian adenylyl cyclase and uses therefor” (Board of Regents, The University of Texas System, priority 1996, dated 2000).

For assay [1], the target named is T1, soluble adenylyl cyclase chimera IC1 IIC2 -L3 (C1a of type I adenylyl cyclase, residues 271-484, linked to C2a of type II adenylyl cyclase, residues 821-1090) (UniProt P19754+P26769).
T1 construct: IC1a includes residues 271-484 of type I adenylyl cyclase; IIC2a includes residues 821-1090 of type II adenylyl cyclase; made in house; host or cells: E. coli TP2000 (150,000 g supernatant)
Put plainly: Adenylyl cyclase activity of 150,000 g supernatant from E. coli expressing IC1 IIC2 -L3. The assay is classed as biochemical, mammalian. As for the experimental part: FIG. 2--Enzyme activity of chimeras.
Data shown are representative of at least two studies.
E. coli that contained the desired plasmids were grown in LB plus 50 μM carbenicillin to OD600 =0.3. Isopropyl-β-D-thiogalactopyranoside(100 μM) and chloramphenicol (0.5 μM) were added to induce expression of adenylyl cyclase for 12 hours. Bacteria were then collected by centrifugation at 4° C. and lysed by incubation at 4° C. for 30 min in 20 mM Tris-HCl (pH 8.0), 1 mM EDTA, 2 mM dithiothreitol (DTT) and protease inhibitors with 0.1 mg/ml of lysozyme. The suspension was sonicated briefly (3×20 sec) during incubation. The lysate was centrifuged (4° C.) at 150,000×g for 30 min, and the supernatant was recovered.
The inventors examined adenylyl cyclase activity in vitro in 150,000 g supernatant fractions from E. coli […] transformed with the various constructs. […] Ca^2+ -calmodulin had no detectable effect on activity, and lysates from cells expressing either IC1 or IIC2 had little adenylyl cyclase activity.
However, the maximal stimulatory effect of the G protein α subunit exceeded that of forskolin (FIG. 4). […] Synergistic activation of the enzyme was thus not due to alternation of apparent substrate affinity.

Assay [2] deals with IC1 IIC2 -L3.
In assay [3] the target is IC1 IIC2 -L3. This is another data set of the same source.
The target in assay [4] is mixture of IC1 and IIC2 (non-covalent complex of the C1 domain of type I and the C2 domain of type II adenylyl cyclase) (Bos taurus (Bovine); Rattus norvegicus (Rat)).
The target is the same in assay [5]. The assay is described as follows: equilibrium constant of the model of FIG. 15, derived from the EC50 of activated Gsα for adenylyl cyclase activity of mixed IC1 and IIC2; no direct binding assay.
Assay [6] deals with IC1 (C1a domain of type I adenylyl cyclase, construct of Example 5) (Bos taurus (Bovine)).
Assay [7] has the same target. The source holds these as a separate data set.
For assay [8] the target is unchanged. Put plainly: estimated from the adenylyl cyclase activity of 0.1 µM IC1 titrated with IIC2 without activator (FIG. 13A, model of FIG. 15); no direct binding assay.

The term Kd denotes the constant that tells how readily two partners part at equilibrium.

A value given as a limit tells only on which side of the number the result lay.

T1 sequence (P19754+P26769 fused, change not shown): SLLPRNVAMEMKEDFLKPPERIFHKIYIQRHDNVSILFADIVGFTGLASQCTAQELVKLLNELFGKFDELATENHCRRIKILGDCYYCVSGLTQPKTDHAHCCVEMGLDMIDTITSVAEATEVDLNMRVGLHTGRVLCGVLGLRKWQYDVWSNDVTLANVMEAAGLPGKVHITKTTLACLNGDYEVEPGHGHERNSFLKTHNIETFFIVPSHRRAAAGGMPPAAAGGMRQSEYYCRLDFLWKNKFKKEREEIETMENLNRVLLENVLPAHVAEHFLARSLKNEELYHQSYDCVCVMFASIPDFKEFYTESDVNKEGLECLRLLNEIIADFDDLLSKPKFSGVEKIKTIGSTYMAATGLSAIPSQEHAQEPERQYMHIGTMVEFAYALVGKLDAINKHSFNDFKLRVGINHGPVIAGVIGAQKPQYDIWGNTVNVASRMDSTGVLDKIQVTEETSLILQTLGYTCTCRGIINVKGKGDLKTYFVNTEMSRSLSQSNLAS

Turning to `C=CC1(C)CC(=O)C2C3(C)CCCC(C)(C)C3C(O)C(OC(C)=O)C2(C)O1` (stereo not drawn) [1,9-dideoxyforskolin], the “stimulation of adenylyl cyclase activity” value in assay [1] (150,000 g supernatant, FIG. 3) is given as “failed to stimulate”.
For `Nc1ncnc2c1ncn2[C@H]1C[C@H](OP(=O)(O)O)[C@@H](CO)O1` [2'-deoxy-3'-AMP], in assay [1] (forskolin-activated enzyme, FIG. 7), the “inhibition of adenylyl cyclase activity (P-site inhibitor), mode” value is “inhibited noncompetitively”.
“wild-type alpha subunit of the G protein (Gsα)”: the adenylyl cyclase activity of 150,000 g supernatant with IC1 IIC2 -L1, with IC1 IIC2 -L3 [2] and in the assay with IC1 IIC2 -L5 was 50 fold throughout. Moreover, the EC50 for activation of adenylyl cyclase activity with IC1 IIC2 -L3 [3] came out at 1 µM. In [4], the adenylyl cyclase activity of purified mixed fragments (8 nM IC1, 6.6 µM IIC2) against the concentration of activated Gsα was > 100 fold. For the same molecule, in assay [5], the K4 stood at 0.4 µM.
Regarding “IIC2 (C2 domain of type II adenylyl cyclase, construct of Example 5) (enzyme)”, in assay [6], the apparent EC50 for IIC2, adenylyl cyclase activity with 8 nM IC1, 50 µM FSK and 10 µM GTP[γS]-Gsα stood at 15 nM; the apparent EC50 for IIC2, adenylyl cyclase activity with 8 nM IC1 and 50 µM FSK is 190 nM. The EC50 for IIC2, adenylyl cyclase activity with IC1 in the absence of activators in [7] was > 10 µM. Moreover, the Kd in assay [8] is > 10 µM.
